The target of series [1] is DNA ligase I (LIG1) wild-type (Homo sapiens, UniProt P18858 1-919). Briefly: BLI; no Mg2+ or ATP listed in kinetics buffer; BLI (Octet QKe, streptavidin sensors, 40 nM DNA loaded, LIG1 10-2430 nM): Hepes pH 7.4, 200 mM NaCl, 0.5% BSA, 0.05% Tween 20, 20 °C; 1:1 binding model. The conditions noted are these: protein: recombinant; tags: His-tag; label: 3'-biotin on downstream strand (S2); 1-nt gap opposite template T; 34-nt template (S7 equals S4 reversed to 5'-3') with 17-nt upstream and 16-nt downstream strands; outer ends blunt. For orientation: BLI is a label-free optical method that tracks binding on a fibre tip over time.

Series [2] addresses LIG1 E346A/E592A (EE/AA) low-fidelity mutant (Homo sapiens, UniProt P18858 1-919, E346A;E592A). The description is as above. The conditions noted are these: protein: recombinant; tags: His-tag; label: 3'-biotin on downstream strand (S2); 1-nt gap opposite template T; 34-nt template (S7 equals S4 reversed to 5'-3') with 17-nt upstream and 16-nt downstream strands; outer ends blunt.

Among the data in paper PMC8024709, “DNA ligase I fidelity mediates the mutagenic ligation of pol β oxidized and mismatch nucleotide insertion products in base excision repair” are Kd values, retold here.

Sequence of LIG1 E346A/E592A (EE/AA) low-fidelity mutant (P18858 whole entry E346A/E592A): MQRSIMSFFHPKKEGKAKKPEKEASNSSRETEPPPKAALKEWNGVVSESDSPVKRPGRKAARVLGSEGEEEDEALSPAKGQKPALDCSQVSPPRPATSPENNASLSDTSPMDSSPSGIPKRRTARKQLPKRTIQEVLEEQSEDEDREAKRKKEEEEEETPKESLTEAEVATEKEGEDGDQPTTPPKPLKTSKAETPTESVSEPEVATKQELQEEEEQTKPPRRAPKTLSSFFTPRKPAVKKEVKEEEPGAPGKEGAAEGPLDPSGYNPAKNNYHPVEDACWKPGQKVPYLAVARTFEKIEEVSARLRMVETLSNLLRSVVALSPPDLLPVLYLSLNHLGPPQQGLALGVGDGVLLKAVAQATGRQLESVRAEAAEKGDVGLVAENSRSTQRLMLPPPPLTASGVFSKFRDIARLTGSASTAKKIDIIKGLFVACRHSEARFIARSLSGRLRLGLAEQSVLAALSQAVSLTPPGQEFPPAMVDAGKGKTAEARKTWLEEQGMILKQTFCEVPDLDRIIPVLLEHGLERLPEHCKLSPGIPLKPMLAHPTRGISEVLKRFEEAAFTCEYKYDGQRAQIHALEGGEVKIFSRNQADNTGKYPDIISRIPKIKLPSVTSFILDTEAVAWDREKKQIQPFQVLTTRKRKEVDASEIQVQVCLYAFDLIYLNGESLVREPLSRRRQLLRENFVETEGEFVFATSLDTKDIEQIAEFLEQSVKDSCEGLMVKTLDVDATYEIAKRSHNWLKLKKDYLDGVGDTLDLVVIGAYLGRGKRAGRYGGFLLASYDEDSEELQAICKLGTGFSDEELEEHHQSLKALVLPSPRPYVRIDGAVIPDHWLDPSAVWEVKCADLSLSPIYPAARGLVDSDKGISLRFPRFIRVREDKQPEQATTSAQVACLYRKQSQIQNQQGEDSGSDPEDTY
Sequence of DNA ligase I (LIG1) wild-type (P18858 whole entry): as the sequence (P18858 whole entry E346A/E592A) above, with A346E, A592E counted along it

B1: one-nucleotide-gap DNA, template T (BLI) (dsDNA)
DNA 1: CATGGGCGGCATGAACC
DNA 2: GAGGCCCATCCTCACC
DNA 3: GGTGAGGATGGGCCTCTGGTTCATGCCGCCCATG
What is called Kd is a measure of binding affinity in units of concentration. For the molecule B1, the Kd was approximately 83 nM in series [1] and approximately 20 nM in series [2].
